The values below come from article PMC9482650, “Quantitative fragmentomics allow affinity mapping of interactomes” (Nature Communications, 2022).

Substitutions are numbered along the chain they refer to.

B1: CTBP1, Q13363 (peptide)
chain: ADRDHASDQL
B2: RRBP1, Q9P2E9 (peptide)
chain: GSSSKEGTSV
B3: APPL1, Q9UKG1 (peptide)
chain: EGGKKRESEA

Chain of LNX1_3, Q8TBB1 (Q8TBB1 500-596): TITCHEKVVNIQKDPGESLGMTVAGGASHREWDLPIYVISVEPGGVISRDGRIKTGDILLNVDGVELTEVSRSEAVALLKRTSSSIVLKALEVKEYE
Chain of TJP1_3, Q07157 (Q07157 416-512): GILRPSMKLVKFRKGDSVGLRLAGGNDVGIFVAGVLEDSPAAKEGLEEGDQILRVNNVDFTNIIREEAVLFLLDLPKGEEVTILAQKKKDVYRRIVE
Chain of Inadl_5, Q8NI35 (Q8NI35 673-780): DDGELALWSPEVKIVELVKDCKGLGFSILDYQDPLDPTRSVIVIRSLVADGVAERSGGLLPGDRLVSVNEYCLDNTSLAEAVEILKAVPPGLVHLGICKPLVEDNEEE
Chain of GRID2IP_1, A4D2P6 (A4D2P6 1-87): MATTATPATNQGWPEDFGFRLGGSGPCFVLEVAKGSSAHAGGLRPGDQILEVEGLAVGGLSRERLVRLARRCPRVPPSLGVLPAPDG
Chain of FRMPD2_2, Q68DX3 (Q68DX3 944-1038): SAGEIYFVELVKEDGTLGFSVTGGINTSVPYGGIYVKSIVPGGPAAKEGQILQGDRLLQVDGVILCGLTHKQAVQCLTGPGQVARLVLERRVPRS

One test deals with T1, GRIP1_7, Q9Y3R0.
T1 sequence (Q9Y3R0 999-1096, limits assumed, looked up): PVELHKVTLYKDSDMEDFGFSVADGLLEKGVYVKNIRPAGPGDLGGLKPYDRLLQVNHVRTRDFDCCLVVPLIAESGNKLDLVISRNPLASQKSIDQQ
The test can be described thus: holdup assay. As to conditions: plain residues with an end cap or a label only (N-terminal biotin on a linker: ado-ado). Set-up: key: below the threshold = too weak to quantify, mostly under pKd 3.1 to 4.
As for B1, the negative logarithm of the Kd (pKd) (commonly −log10 of the Kd, conventionally taken in molar units) was “below the threshold”.
On the same count and under the same terms, for B2 the value was “below the threshold”; for B3, “below the threshold”.

The target of the next test is T2, PDZD2_2, O15018.
T2 sequence (O15018 329-429, limits assumed, looked up): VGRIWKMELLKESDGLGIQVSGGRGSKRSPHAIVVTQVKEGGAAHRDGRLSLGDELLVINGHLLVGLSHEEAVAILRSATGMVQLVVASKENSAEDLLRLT
The test can be described thus: holdup assay. Set-up: key: below the threshold = too weak to quantify, mostly under pKd 3.1 to 4. As to conditions: plain residues with an end cap or a label only (N-terminal biotin on a linker: ado-ado).
Take B1: the pKd entry is recorded as “below the threshold”.
For B2, the negative-log Kd (pKd) stood at 4.82.
Take B3: the pKd entry was “below the threshold”.

The target in the next test is GORASP2, Q9H8Y8. The test can be described thus: holdup assay. Set-up: key: below the threshold = too weak to quantify, mostly under pKd 3.1 to 4. As to conditions: plain residues with an end cap or a label only (N-terminal biotin on a linker: ado-ado).
As for B1, the pKd result is recorded as “below the threshold”.
For B2, the pKd entry was “below the threshold”.
On to B3, for which the pKd entry was “below the threshold”.

For another test, the target named is T3, GRIP1_4, Q9Y3R0.
T3 sequence (Q9Y3R0 467-571, limits assumed, looked up): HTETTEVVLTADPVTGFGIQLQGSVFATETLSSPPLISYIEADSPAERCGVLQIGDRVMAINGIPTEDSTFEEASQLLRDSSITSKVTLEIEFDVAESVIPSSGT
Nature of the test: holdup assay. Also on record: key: below the threshold = too weak to quantify, mostly under pKd 3.1 to 4. As to conditions: plain residues with an end cap or a label only (N-terminal biotin on a linker: ado-ado).
For the molecule B1, the pKd result is “below the threshold”.
For the molecule B2, the negative logarithm of the Kd (pKd) entry is on record as “below the threshold”.
On the same count and under the same terms, the result for B3 reads “below the threshold”.

Another test deals with T4, SNTG1, Q9NSN8.
T4 sequence (Q9NSN8 52-150, limits assumed, looked up): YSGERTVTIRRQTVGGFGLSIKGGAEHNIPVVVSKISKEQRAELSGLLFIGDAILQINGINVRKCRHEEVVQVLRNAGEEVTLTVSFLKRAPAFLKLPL
Nature of the test: holdup assay. Set-up: key: below the threshold = too weak to quantify, mostly under pKd 3.1 to 4. As to conditions: plain residues with an end cap or a label only (N-terminal biotin on a linker: ado-ado).
In the case of B1, the negative logarithm of the Kd (pKd) result was “below the threshold”.
On the same count and under the same terms, for B2 the value was 3.63; for B3, “below the threshold”.

A further test addresses Inadl_5, Q8NI35. Nature of the test: holdup assay. Also on record: key: below the threshold = too weak to quantify, mostly under pKd 3.1 to 4. As to conditions: plain residues with an end cap or a label only (N-terminal biotin on a linker: ado-ado).
In the case of B1, the pKd result is reported as “below the threshold”.
Same read-out and setting: the result for B2 reads “below the threshold”; that for B3, “below the threshold”.

Another test deals with MAST2, Q6P0Q8. Nature of the test: holdup assay. Also on record: key: below the threshold = too weak to quantify, mostly under pKd 3.1 to 4. As to conditions: plain residues with an end cap or a label only (N-terminal biotin on a linker: ado-ado).
Chain of MAST2, Q6P0Q8 (Q6P0Q8 1099-1202): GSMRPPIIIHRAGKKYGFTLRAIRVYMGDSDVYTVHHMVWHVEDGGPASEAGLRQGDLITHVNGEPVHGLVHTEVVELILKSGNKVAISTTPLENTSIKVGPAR
As for B1, the pKd entry was “below the threshold”.
On the same count and under the same terms, the result for B2 reads 4.75; that for B3, “below the threshold”.

Another test deals with AHNAK1, Q09666. Nature of the test: holdup assay. Set-up: key: below the threshold = too weak to quantify, mostly under pKd 3.1 to 4. As to conditions: plain residues with an end cap or a label only (N-terminal biotin on a linker: ado-ado).
Chain of AHNAK1, Q09666 (Q09666 4-100): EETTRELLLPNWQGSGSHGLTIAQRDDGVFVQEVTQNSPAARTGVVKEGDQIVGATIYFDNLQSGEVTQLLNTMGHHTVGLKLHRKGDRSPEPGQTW
Regarding B1, the pKd entry is reported as “below the threshold”.
For B2, the pKd entry is reported as “below the threshold”.
The same measure, in the same setting: for B3 the value was “below the threshold”.

The next test has as its target LNX1_3, Q8TBB1. Nature of the test: holdup assay. Set-up: key: below the threshold = too weak to quantify, mostly under pKd 3.1 to 4. As to conditions: plain residues with an end cap or a label only (N-terminal biotin on a linker: ado-ado).
With B1, the pKd entry is on record as “below the threshold”.
Still for that read-out and setting: for B2 the value was “below the threshold”; for B3, “below the threshold”.

For another test, the target named is T5, NHERF3_3, Q5T2W1.
T5 sequence (Q5T2W1 238-333, limits assumed, looked up): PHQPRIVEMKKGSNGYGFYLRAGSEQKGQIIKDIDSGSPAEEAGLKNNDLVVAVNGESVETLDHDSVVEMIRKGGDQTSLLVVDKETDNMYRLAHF
The test can be described thus: holdup assay. Set-up: key: below the threshold = too weak to quantify, mostly under pKd 3.1 to 4. As to conditions: plain residues with an end cap or a label only (N-terminal biotin on a linker: ado-ado).
As to B1, the pKd result is “below the threshold”.
Take B2: the pKd result is recorded as “below the threshold”.
Take B3: the pKd result was “below the threshold”.

In the next test the target is T6, PTPN13_1, Q12923.
T6 sequence (Q12923 1088-1188, limits assumed, looked up): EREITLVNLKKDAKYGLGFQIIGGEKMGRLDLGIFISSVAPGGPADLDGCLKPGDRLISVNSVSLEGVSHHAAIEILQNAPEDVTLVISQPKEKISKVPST
Nature of the test: holdup assay. Set-up: key: below the threshold = too weak to quantify, mostly under pKd 3.1 to 4. As to conditions: plain residues with an end cap or a label only (N-terminal biotin on a linker: ado-ado).
Take B1: the pKd entry is given as “below the threshold”.
The same measure, in the same setting: the result for B2 reads “below the threshold”; that for B3, “below the threshold”.

For a further test, the target named is T7, RAPGEF6, Q8TEU7.
T7 sequence (Q8TEU7 525-625, limits assumed, looked up): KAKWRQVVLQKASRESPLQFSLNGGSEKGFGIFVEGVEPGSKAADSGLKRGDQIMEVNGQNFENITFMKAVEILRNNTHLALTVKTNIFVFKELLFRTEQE
Nature of the test: holdup assay. Also on record: key: below the threshold = too weak to quantify, mostly under pKd 3.1 to 4. As to conditions: plain residues with an end cap or a label only (N-terminal biotin on a linker: ado-ado).
As to B1, the pKd entry is given as “below the threshold”.
On the same count and under the same terms, the result for B2 reads “below the threshold”; that for B3, 3.49.

The next test addresses T8, MPDZ_5, O75970.
T8 sequence (O75970 695-796, limits assumed, looked up): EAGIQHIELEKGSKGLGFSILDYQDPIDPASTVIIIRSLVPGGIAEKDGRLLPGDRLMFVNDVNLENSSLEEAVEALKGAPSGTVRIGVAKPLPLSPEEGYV
The test can be described thus: holdup assay. As to conditions: plain residues with an end cap or a label only (N-terminal biotin on a linker: ado-ado). Set-up: key: below the threshold = too weak to quantify, mostly under pKd 3.1 to 4.
For the molecule B1, the pKd result is listed as “below the threshold”.
Same read-out and setting: for B2 the value was “below the threshold”; for B3, “below the threshold”.

For the next test, the target named is T9, SYNJ2BP, P57105.
T9 sequence (P57105 8-110, limits assumed, looked up): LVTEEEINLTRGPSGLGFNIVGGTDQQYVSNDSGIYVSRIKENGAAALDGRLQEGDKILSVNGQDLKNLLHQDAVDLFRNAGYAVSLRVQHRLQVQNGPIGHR
Nature of the test: holdup assay. As to conditions: plain residues with an end cap or a label only (N-terminal biotin on a linker: ado-ado). Also on record: key: below the threshold = too weak to quantify, mostly under pKd 3.1 to 4.
B1: the pKd result is “below the threshold”.
On the same count and under the same terms, for B2 the value was 5.41; for B3, “below the threshold”.

A further test deals with T10, DFNB31_3, Q9P202.
T10 sequence (Q9P202 811-907, limits assumed, looked up): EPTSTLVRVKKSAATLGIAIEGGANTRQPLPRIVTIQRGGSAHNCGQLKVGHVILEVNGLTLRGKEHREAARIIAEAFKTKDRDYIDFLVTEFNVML
Nature of the test: holdup assay. Also on record: key: below the threshold = too weak to quantify, mostly under pKd 3.1 to 4. As to conditions: plain residues with an end cap or a label only (N-terminal biotin on a linker: ado-ado).
The molecule B1 yielded a pKd of 3.97.
On the same count and under the same terms, for B2 the value was 3.96; for B3, “below the threshold”.

The target of another test is T11, SNTB1, Q13884.
T11 sequence (Q13884 107-205, limits assumed, looked up): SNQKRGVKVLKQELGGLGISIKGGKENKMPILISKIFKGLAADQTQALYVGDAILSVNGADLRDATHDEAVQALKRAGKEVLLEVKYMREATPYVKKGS
Nature of the test: holdup assay. Also on record: key: below the threshold = too weak to quantify, mostly under pKd 3.1 to 4. As to conditions: plain residues with an end cap or a label only (N-terminal biotin on a linker: ado-ado).
Take B1: the pKd entry was “below the threshold”.
Take B2: the pKd came to 3.9.
As for B3, the pKd entry was “below the threshold”.

The target of a further test is FRMPD3, Q5JV73. Nature of the test: holdup assay. Also on record: key: below the threshold = too weak to quantify, mostly under pKd 3.1 to 4. As to conditions: plain residues with an end cap or a label only (N-terminal biotin on a linker: ado-ado).
Chain of FRMPD3, Q5JV73 (Q5JV73 12-100): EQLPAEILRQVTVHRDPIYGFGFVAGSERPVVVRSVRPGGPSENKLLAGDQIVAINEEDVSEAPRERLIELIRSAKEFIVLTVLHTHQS
For B1, the pKd result is “below the threshold”.
For B2, the pKd result was “below the threshold”.
Same read-out and setting: for B3 the value was “below the threshold”.

For another test, the target named is T12, LIN7A, O14910.
T12 sequence (O14910 103-200, limits assumed, looked up): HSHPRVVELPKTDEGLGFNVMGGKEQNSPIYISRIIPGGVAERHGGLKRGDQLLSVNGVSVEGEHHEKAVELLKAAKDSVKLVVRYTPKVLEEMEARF
The test can be described thus: holdup assay. Set-up: key: below the threshold = too weak to quantify, mostly under pKd 3.1 to 4. As to conditions: plain residues with an end cap or a label only (N-terminal biotin on a linker: ado-ado).
For the molecule B1, the pKd result is reported as “below the threshold”.
On the same count and under the same terms, for B2 the value was “below the threshold”; for B3, “below the threshold”.

For a further test, the target named is MAGI2_5, Q86UL8. The test can be described thus: holdup assay. Also on record: key: below the threshold = too weak to quantify, mostly under pKd 3.1 to 4. As to conditions: plain residues with an end cap or a label only (N-terminal biotin on a linker: ado-ado).
Chain of MAGI2_5, Q86UL8 (Q86UL8 915-1017): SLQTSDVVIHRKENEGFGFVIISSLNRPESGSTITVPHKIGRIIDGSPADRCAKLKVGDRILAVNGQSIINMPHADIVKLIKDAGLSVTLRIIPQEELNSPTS
B1: the negative-log Kd (pKd) result is given as “below the threshold”.
Consider B2, for which the pKd entry is reported as “below the threshold”.
Still for that read-out and setting: the result for B3 reads “below the threshold”.

A further test addresses GRID2IP_1, A4D2P6. The test can be described thus: holdup assay. As to conditions: plain residues with an end cap or a label only (N-terminal biotin on a linker: ado-ado). Set-up: key: below the threshold = too weak to quantify, mostly under pKd 3.1 to 4.
Turning to B1, the pKd entry is listed as “below the threshold”.
Same read-out and setting: the result for B2 reads “below the threshold”; that for B3, “below the threshold”.

Another test addresses FRMPD2_2, Q68DX3. Nature of the test: holdup assay. Also on record: key: below the threshold = too weak to quantify, mostly under pKd 3.1 to 4. As to conditions: plain residues with an end cap or a label only (N-terminal biotin on a linker: ado-ado).
B1: the pKd entry is recorded as “below the threshold”.
On the same count and under the same terms, the result for B2 reads “below the threshold”.
With B3, the pKd entry is “below the threshold”.

In a further test the target is T13, LIN7C, Q9NUP9.
T13 sequence (Q9NUP9 88-185, limits assumed, looked up): T12 sequence (O14910 103-200, limits assumed, looked up) with D13E, V20I, V40I, E42D, K77Q, D78G, S79K, A96S
Nature of the test: holdup assay. Also on record: key: below the threshold = too weak to quantify, mostly under pKd 3.1 to 4. As to conditions: plain residues with an end cap or a label only (N-terminal biotin on a linker: ado-ado).
B1 yielded a pKd of 3.96.
On the same count and under the same terms, the result for B2 reads “below the threshold”.
For B3, the pKd entry is reported as “below the threshold”.

The next test addresses TJP1_3, Q07157. Nature of the test: holdup assay. Set-up: key: below the threshold = too weak to quantify, mostly under pKd 3.1 to 4. As to conditions: plain residues with an end cap or a label only (N-terminal biotin on a linker: ado-ado).
For the molecule B1, the negative logarithm of the Kd (pKd) result was “below the threshold”.
Still for that read-out and setting: the result for B2 reads “below the threshold”; that for B3, “below the threshold”.

The target of the next test is PICK1, Q9NRD5. Nature of the test: holdup assay. Also on record: key: below the threshold = too weak to quantify, mostly under pKd 3.1 to 4. As to conditions: plain residues with an end cap or a label only (N-terminal biotin on a linker: ado-ado).
Chain of PICK1, Q9NRD5 (Q9NRD5 17-115): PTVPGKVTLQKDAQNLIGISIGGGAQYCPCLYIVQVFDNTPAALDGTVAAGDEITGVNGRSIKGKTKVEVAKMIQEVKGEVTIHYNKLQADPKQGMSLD
Take B1: the pKd turned out to be 4.13.
The same measure, in the same setting: for B2 the value was 4.14.
Same read-out and setting: for B3 the value was “below the threshold”.
